One data set has as its target Hfq (Escherichia coli, UniProt P0A6X3 1-102). The data set can be described thus: fluorescence anisotropy; Anisotropy: buffer not given in material (as Geinguenaud 2011); pH ~5 stated for DNA complex formation; microscopy: Hfq stock in 50 mM Tris-HCl pH 7.5, 50 mM NH4Cl, 10% glycerol, 1 mM EDTA, exchanged to TE (10 mM Tris-HCl pH 8, 1 mM EDTA); TEM: 10 mM Tris-HCl, 1 mM EDTA, room temperature, 10 min. As to conditions: protein: recombinant; chain copies: 6; label: 5'-fluorescein. On the technique in general: Polarisation of emitted light reports the rotation of a fluorescent probe.

The target of a further data set is T1, Hfq-CTR peptide (Escherichia coli, UniProt P0A6X3 64-102).
T1 chain: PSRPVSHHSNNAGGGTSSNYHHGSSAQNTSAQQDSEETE
The data set can be described thus: FTIR and SRCD; pH ~5; Anisotropy: buffer not given in material (as Geinguenaud 2011); pH ~5 stated for DNA complex formation; microscopy: Hfq stock in 50 mM Tris-HCl pH 7.5, 50 mM NH4Cl, 10% glycerol, 1 mM EDTA, exchanged to TE (10 mM Tris-HCl pH 8, 1 mM EDTA); TEM: 10 mM Tris-HCl, 1 mM EDTA, room temperature, 10 min.

Four molecules from article PMC10392684, “Amyloid-like Hfq interaction with single-stranded DNA: involvement in recombination and replication in Escherichia coli” can be followed below.

Sequence of Hfq (P0A6X3 whole entry): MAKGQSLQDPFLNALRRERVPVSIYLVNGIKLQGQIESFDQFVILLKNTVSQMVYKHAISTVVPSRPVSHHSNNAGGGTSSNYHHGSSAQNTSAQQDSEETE

B1: dA7 (ssDNA)
DNA: AAAAAAA
Turning to B1, the Kd in the data set with Hfq turned out to be 3500 ± 200 nM.

B2: dA20 (ssDNA)
DNA: AAAAAAAAAAAAAAAAAAAA
B2: the Kd in the data set with Hfq came out at 183 ± 8 nM.

B3: dA59 (ssDNA)
DNA: AAAAAAAAAAAAAAAAAAAAAAAAAAAAAAAAAAAAAAAAAAAAAAAAAAAAAAAAAAA
Consider B3, for which the Kd in the data set with Hfq came to 166 ± 16 nM.

B4: dA59 (spectroscopy) (ssDNA)
DNA: B3 DNA
Take B4: the binding result with Hfq-CTR peptide is “binds”.

A word on the Kd: it is the constant that tells how readily two partners part at equilibrium.
